Measurements reported in patent US20130144035A1, “COMPOSITIONS AND METHODS FOR LEUKOCYTE-TARGETING MULTI-VALENT IMAGING PROBES” (priority 2010, published 2013).
Read-outs that look alike come from different tables or passages of the source. Square brackets hold non-standard residues; d marks the D form. Peptide text beside a SMILES is read from it. * marks the point of attachment. PEG12 = NCCOCCOCCOCCOCCOCCOCCOCCOCCOCCOCCOCCOCCC(=O)O; PEG4 = NCCOCCOCCOCCOCCC(=O)O; HYNIC = NNc1ccc(C(=O)*)cn1; X1 = O=C(/C=C/c1ccccc1)*

Legend:
Blood clearance = type: in vivo; settings: mouse, whole blood, intravenous, control mice (n=3), tail vein injection, mono-exponential clearance; read-out: elimination half-life for blood clearance (T1/2)
Method: Blood kinetics of cFLFLF-PEG12-TKPPR-^99mTc was studied in 3 control (non-inflamed) mice. Approximately 50 μL of blood from the contralateral tail vein were collected in capillary tubes at 15, 30, 45, 60, 120, and 180, 360 min after tracer injection (0.37-0.74 MBq). The capillary tubes were placed in a vial that was weighed beforehand and afterward. Activity in each blood sample was measured in a radioisotope calibrated well counter (CRC-15W, Capintec, Inc, NJ), decay corrected back to the time of tracer injection, normalized for injected dose and animal body weight, and expressed as % ID/g of blood.

[1] = system: isolated human neutrophils (formyl peptide and tuftsin receptors); test: Neutrophil binding, saturation assay; settings: for Kd: TNF-α treated human neutrophils, 25° C., 90 min, saturation assay
Method: Human tumor necrosis factor-α (TNF-α) was procured from Perpotech, and fMLF was purchased from Sigma. Aliquots of both samples were taken (TNF-α, 10 U/mL, and fMLF, 10 mM) and stored at −20° C. For every assay the solutions were thawed to ambient temperature and freshly diluted with […] (HA) buffer before use. Multiscreen high-throughput screening (HTS) with glass fiber filter (FC) 96-well plates, type C, with […] glass filters were purchased from Millipore. Filtration from 96-well plates was performed under vacuum on a Brandel filtration device. The membranes from each well were collected by punching with the Millipore Multiscreen punching instrument. The radioactivity from ^99mTc-bound ligand was measured with either Minaxi (Packard), Autogamma 5000 series (Packard), or Wallac 1420 Wizard (Perkin-Elmer) γ-counters. Radioactivity was measured for 1 min per sample and was not corrected for decay.
Human neutrophils were prepared from normal heparinized (10 U/mL) venous blood by a 1-step Ficoll-Hypaque separation procedure (15, 16), yielding approximately 98% neutrophils; greater than 95% viable as determined with trypan blue containing less than 50 pg/mL of endotoxin. After separation, neutrophils were washed with Hank's balanced salt solution with heparin (10 U/mL) 3 times. After the third wash, neutrophils were resuspended in HA buffer, which was Hank's balanced salt solution supplemented with 0.1% human albumin (Bayer Healthcare). Neutrophil experiments were completed in HA buffer.
Freshly isolated human neutrophils (4×10^6 cells/mL) were treated with TNF-α(10 U/mL, Peprotech) twenty minutes prior to binding studies and transferred to a 96 well plate (Multiscreen® HTS FC by Millipore, Billerica, Mass. 1.2 μm glass filter type C, 50.0 μL, 2.0×10^5 cells/well). […] The bounded radioactivity remaining on the membranes was measured in a gamma counter. Specific binding was calculated as the difference between total binding and nonspecific binding at the highest concentration. […]

[2] = Partition coefficient (octanol/water); type: physicochemical; settings: average of three measurements
Method: Freshly HPLC purified cFLFLF-PEGn-KTKPPR-^99mTc 8 or 9 (˜350 kBq) in 500 μL of water was mixed with 500 μLof octanol in an Eppendorf microcentrifuge tube. The tube was sonicated for […] and then centrifuged at 4,000 rpm for […] (Fisher Scientific Marathon Micro-A). Aliquots (100 μL) of octanol and aqueous layers were carefully separated and radioactivity of samples were counted. Log P is derived as the log of the ratio of radioactivity in octonol to radioactivity in water. The measurement was repeated in triplicate and data presented is the average of three measurements.

Biodistribution = type: in vivo; settings: normal mice, 18 hours post injection
Method: Body distribution of radioactivity was determined in control (n=3) mice 18 h after injection of tracer. After a single blood sample had been taken from the tail vein, mice were euthanized by deep halothane anesthesia. The organs and tissues (ear, heart, lungs, muscle, bone, liver, kidney, spleen, small intestine, and stomach) were collected, rinsed with PBS, wiped with filter paper and weighed in a pre-weighed vial. The radioactivity of each sample was measured in a γ-well counter and decay-corrected back to the time of tracer injection. Biodistribution values are expressed as a percentage of the injected dose (% ID) and normalized by body and organ/tissue mass.

Serum stability = type: in vitro ADME; settings: fetal bovine serum
Method: Fifty microcuries of the cFLFLF-PEG12-TKPPR-^99mTc was added in to 100 μL of fetal bovine serum (Invitrogen, Grand Island, N.Y.). After incubation at 37° C. for 1, 3, and 6 hrs, aliquots of the mixture was filtered through a […] micro spin filter. The filtrates were analyzed by reverse-phase HPLC with a Bioscan Flow Count Radio-HPLC detector. All of newly formed γ-peaks besides the original cFLFLF-PEG12-TKPPR-^99mTc peak would be considered as degraded products.

[3] = system: PMA-induced ear inflammation (neutrophil accumulation); test: SPECT/CT imaging in mouse ear inflammation model (PMA); type: in vivo; settings: 27 hours after PMA challenge, 3 hours post injection
Method: A female FVB mouse, 5 month old, with left ear inflammatory lesion was used to preliminarily assess the ability of the cFLFLF-PEG12-TKPPR-^99mTc to detect inflammation as a result of neutrophils migration and accumulation. The animal model is similar to that described by Gross et al. (19). Topical application of PMA (2.5 μg in 20 μl DMSO) onto the left earlobe induces acute dermatitis, manifested by local swelling, erythema and infiltration of neutrophils (20, 21). The right ear served as control and received only DMSO (vehicle). The SPECT/CT imaging was correlated with myeloperoxidase (MPO) activity determined by non-invasive bioluminal-bioluminescence imaging (19).
Twenty-four hours after PMA challenge, 3.7 MBq […] of cFLFLF-PEG12-TKPPR-^99mTc in 200 μl of saline was administered via tail vein. […] All SPECT images were corrected for radioactivity decay but not for gamma ray attenuation.
Co-registration of SPECT and CT images was performed using ASIPRO software (Siemens Medical Solutions USA, Inc., Knoxyille, Tenn.) and a transformation matrix previously obtained with a dual modality phantom. To characterize the accumulation of the tracer in the ears, volume-of-interest (VOI) analysis was performed to identify the number of detected counts originating in the ears. […] This activity was expressed as percentage of the injected dose per mouse body mass (% ID/g).

[4] = mouse, in vivo; cited from earlier work
[5] = mouse, in vivo; cited from earlier work; remark: listed apart in the source

Compound	half-life (Blood clearance)	Kd [1]	logP [2]	blood retaining (Biodistribution)	liver uptake (Biodistribution)	stable in serum (Serum stability; 37° C.)	fragments of 99mTc labeled peptide by HPLC analysis of serum samples (Serum stability; 37° C., 1, 3, and 6 hours)	accumulation of the tracer in the infected ear (left) vs. control ear [3]	blood retaining [4]	liver uptake [4]	circulation time (T1/2) [5]	fold less potent than compound 9 ([1]; binding to human neutrophils, ratio of Kd)
CC(C)C[C@@H](NC(=O)[C@H](Cc1ccccc1)NC(=O)[C@@H](CC(C)C)NC(=O)[C@H](Cc1ccccc1)NC(=O)/C=C/c1ccccc1)C(=O)N[C@@H](Cc1ccccc1)C(=O)NCCOCCOCCOCCOCCOCCOCCOCCOCCOCCOCCOCCOCCC(=O)N[C@@H](CCCCNC(=O)c1ccc(NN)nc1)C(=O)N[C@H](C(=O)N[C@@H](CCCCN)C(=O)N1CCC[C@H]1C(=O)N1CCC[C@H]1C(=O)N[C@@H](CCCNC(=N)N)C(=O)O)[C@@H](C)O [ligand 9, cFLFLF-PEG12-TKPPR-^99mTc, metal not drawn] (X1-F[dL]F[dL]F[PEG12]K(HYNIC)TKPPR-OH)	~84 min	15.1 nM	-0.89	1.2 % ID	5.3 % ID	at least 6 hours	no appreciable fragments	about 3.15 folds	–	–	–	–
cFLFLFK-PEG-^64Cu	–	–	–	–	–	–	–	–	0.2 % ID	1.5 % ID	55 min	–
CC(C)C[C@@H](NC(=O)[C@H](Cc1ccccc1)NC(=O)[C@@H](CC(C)C)NC(=O)[C@H](Cc1ccccc1)NC(=O)/C=C/c1ccccc1)C(=O)N[C@@H](Cc1ccccc1)C(=O)NCCOCCOCCOCCOCCC(=O)N[C@@H](CCCCNC(=O)c1ccc(NN)nc1)C(=O)N[C@H](C(=O)N[C@@H](CCCCN)C(=O)N1CCC[C@H]1C(=O)N1CCC[C@H]1C(=O)N[C@@H](CCCNC(=N)N)C(=O)O)[C@@H](C)O [ligand 8, cFLFLF-PEG4-TKPPR-^99mTc, metal not drawn] (X1-F[dL]F[dL]F[PEG4]K(HYNIC)TKPPR-OH)	–	47.8 nM	-0.77	–	–	–	–	–	–	–	–	roughly 3 fold
